PMC4536996, “Molecular mechanisms of human IRE1 activation through dimerization and ligand binding” (Oncotarget, 2015)

Biological target: the molecule itself
Test: crystal structure; apo-hIRE1 (no nucleotide), hanging-drop vapor diffusion, 18-20% PEG3350, 0.2 M sodium malonate, Bis-Trispropane pH 6.5, 18°C; 2 molecules in the asymmetric unit

B1: cytoplasmic region of human IRE1 (residues 547-977) (domain or fragment, UniProt O75460 547-977, looked up)
chain: GSSPSLEQDDGDEETSVVIVGKISFCPKDVLGHGAEGTIVYRGMFDNRDVAVKRILPECFSFADREVQLLRESDEHPNVIRYFCTEKDRQFQYIAIELCAATLQEYVEQKDFAHLGLEPITLLQQTTSGLAHLHSLNIVHRDLKPHNILISMPNAHGKIKAMISDFGLCKKLAVGRHSFSRRSGVPGTEGWIAPEMLSEDCKENPTYTVDIFSAGCVFYYVISEGSHPFGKSLQRQANILLGACSLDCLHPEKHEDVIARELIEKMIAMDPQKRPSAKHVLKHPFFWSLEKQLQFFQDVSDRIEKESLDGPIVKQLERGGRAVVKMDWRENITVPLQTDLRKFRTYKGGSVRDLLRAMRNKKHHYRELPAEVRETLGSLPDDFVCYFTSRFPHLLAHTYRAMELCSHERLFQPYYFHEPPEPQPPVTPDAL
stoichiometry N: 2
